ELISA Log10 Titer data for one substance are collected here from patent publication US20210138049A1.

Where “and” joins values, the source holds several entries; their conditions need not be identical. Identical values can stand only once.

For test [1], the target named is α-Synuclein 91-140 peptide (human). Kind of test: peptide ELISA, serum, 0 w.
The target in a further test is β-Syn (103-134) peptide. As to the kind of experiment: peptide ELISA, serum, 0 w. (In general: An ELISA detects its analyte on a solid surface through an enzyme-linked reagent.)

“preimmune guinea pig serum / antibodies purified from preimmune serum of naïve guinea pigs (antibody)”: the ELISA Log10 Titer is 0.1 Log10 titer and 0.2 Log10 titer and 0.3 Log10 titer in test [1]; 0.1 Log10 titer with β-Syn (103-134) peptide.
